Here are results for 1 molecule from US20210340232A1, “MONOCLONAL ANTIBODIES AGAINST HUMAN DICKKOPF3 AND USES THEREOF” (Board of Regents, The University of Texas System, priority 2018, published 2021).

The test system of test [1] is KPC model of PDAC. The test can be described thus: Survival of KPC mice (P48-Cre; Kras LSL-G12D;Trp53fl/fl) with wild type DKK3. The format is in vivo, mouse. How it is done: HPSCs and BxPC3 cells were treated with DKK3 mAb clones JM6-6-1 and JM8-12-1 or isotype control mAb or PBS. (FIGS. 5A-B) HPSC apoptosis and migration as measured by FACS and Transwell migration assay at 48 hours. (FIG. 5C) BxPC3 migration in response to rhDKK3 10 μg/ml as measured by Transwell migration assay at 48 hours. (FIG. 5D) BxPC3 resistance to gemcitabine 100 μM as measured by MTS proliferation assay at 6 days. HPSC-CM, pancreatic stellate cell conditioned media, 10 μg/ml. The orthotopic co-injection BxPC3+ HPSC model of PDAC was used to test the efficacy of DKK3 mAb clones JM6-6-1 or JM8-12-1 (5 mg/kg i.p. once every 5 days). (FIG. 5E) Overall tumor progression was measured every 3-4 days by IVIS imaging. (FIG. 5F) Metastatic tumors in the peritoneal cavity after removal of the primary pancreatic tumor are shown by IVIS imaging. (FIG. 5G) Kaplan Meier survival curve showing mice treated with DKK3 mAb clone JM8-12 (right-most line), control mAb (middle line), or PBS (left-most line). (FIG. 5H) KPC mice (P48-Cre; Kras LSL-G12D;Trp53fl/fl) with either wild type DKK3 (solid lines) or deficient in DKK3 (“DKK3-KO,” dashed lines) were treated with DKK3 mAb JM6-6-1 (5 mg/kg i.p. once every 5 days), PBS or control mAb. Kaplan Meier survival curve is shown with hazard ratios (Log-rank test). *p<0.05, **p<0.01, ***p<0.001, ****p<0.0001 vs. control Ab.
Two GEMMs of PDAC that differ in the pancreas-specific promoter to target oncogenic Kras expression (Hingorani et al., 2005; Hingorani et al., 2003) were used in the experiments to evaluate the effect of DKK3 neutralizing mAb (Pdx1-Cre; Kras^LSL-G12D; Trp53^R172H/+ and P48-Cre; Kras^LSL-G12D; Trp53^fl/fl). To evaluate the effects of genetic ablation of DKK3 on pancreatic cancer development, DKK3-null mice were crossed to P48-Cre; Kras^LSL-G12D;Trp53^R172H or P48-Cre; Kras^LSL-G12D; Trp53^fl/fl mice (Hingorani et al., 2005; Hingorani et al., 2003), and the progeny were monitored until they were moribund. Tissue and blood samples were collected after the mice were euthanized. […]

In test [2] the test system is KPC cells. The test can be described thus: Syngeneic orthotopic model with luciferase-labeled KPC cells in C57/BL6 mice. The format is in vivo, mouse. The protocol:
FIGS. 6A-F. DKK3 blockade is associated with increased tumor immune infiltrates and improves response to checkpoint inhibitor therapy. (FIG. 6A) T cells were stimulated, treated with DKK3 (5-10 μg/mL) and proliferation was measured by CFSE assay. In a syngeneic orthotopic model with luciferase-labeled KPC cells, tumors were examined for CD3 and CD8 expression by IHC (FIG. 6B) and additional markers of T cell activity were measured by quantitative PCR (FIG. 6C). Mice in this model were treated with either control IgG, DKK3 mAb JM6-6-1, αCTLA4 or the combination JM6-6-1+αCTLA4 and tumor growth was measured by IVIS imaging to 25 and 190 days (FIG. 6D). Survival in this orthotopic implantation model is shown in (FIG. 6E). Using a GEMM (FIG. 6F), KPC/DKK3^+/+ (black line) or KPC/DKK3^−/− (blue line) mice were treated with αCTLA4 or control IgG and the Kaplan Meier survival curve is shown. *p<0.05, **p<0.01, ***p<0.001.
An orthotopic nude mouse model of PDAC using BxPC3 cancer cells labeled with firefly luciferase (BxPC3-FL) co-injected with HPSCs has been previously described (Hwang et al., 2008). Mice received intrapancreatic injections of BxPC3-FL (1×10^6 per mouse) with HPSC-shControl or HPSC-shDKK3 in a tumor-to-stroma ratio of 1:0 or 1:3 in 50-μL of HBSS and tumor growth was monitored using IVIS imaging (Hwang et al., 2008). In addition, a syngeneic immunocompetent DKK3 null model was used, provided by Dr. C. Niehrs (Barrantes Idel et al., 2006), that was injected with murine PDAC cells (termed “KPC cells”) isolated from tumors arising in a GEMM of PDAC (Pdx1-Cre; Kras^LSL-G12D;Trp53^R172H/+) (Hingorani et al., 2005; Hingorani et al., 2003) and labeled with luciferase.
In order to determine whether manipulation of DKK3 can affect the response to checkpoint inhibitors, mice in the syngeneic orthotopic C57/BL6 model were treated with either isotype control IgG, DKK3 mAb JM6-6-1, α-CTLA4 or the combination of JM6-6-1 with α-CTLA4. […] With additional follow-up to day 200 (FIG. 6D, right), tumors in all groups continued to grow albeit at a slower rate in the JM6-6-1 and combination JM6-6-1+α-CTLA4 groups (FIG. 6D). […] Combination treatment JM6-6-1+α-CTLA4 was associated with a highly significant improvement in survival (p=0.004) and median survival was not reached in this group (FIG. 6E). […] In the combination treatment group, 80% of mice were alive and appeared healthy at 800 days and were electively sacrificed. In the JM6-6-1 group, 20% of mice were still alive at 726 days when they were electively sacrificed.

[3] abbreviates: JM6-6-1 5 mg/kg i.p. once every 5 days.

B1: JM6-6-1: monoclonal antibody against human DKK3; heavy chain variable SEQ ID NO: 19, light chain variable SEQ ID NO: 20 (antibody, V domains shown)
VH: EVKLVESGGGLVKPGGSLKLSCAASGFTFTIEYMAWIRQTPEKRLEWVASISSGGDDIYYADNVKGRFTISRDNAKNTLYLQMSSLKSEDTAIYYCSRSLSDWGQGTTLTVSSAKTTPPSDYPLA
VL: MTQTPLSLPVSLGDQASISCRSSQSILHSNGHTYLEWYLQKPGQSPKLLIYKVSNRFSGVPDRFSGSGSGTDFTLKISRVEAEDLGVYYCFQGSHVPFTFGSGTKLEIERADAAQ
Regarding B1, in test [1] (setting [3]), the “hazard ratio (HR) compared to PBS or isotype control mAb” value came out at 0.24 and the “increase of median survival compared to PBS or isotype control mAb” value amounted to 43%. Moreover, the median survival in test [1] (KPC mice with wild type DKK3) turned out to be 61.5 days. Besides, the “mice alive at 726 days” value in test [2] (726 days) is recorded as 20%. Also, the “gross tumors in pancreata of remaining mice” value in test [2] (at elective sacrifice) was “no gross tumors were identified”. The “tumor growth by luciferase signal” value in test [2] (compared to control IgG) was “growth inhibition at 22 days and onward”. For the same molecule, the median survival in test [2] (syngeneic orthotopic C57/BL6 model) is recorded as 75 days.
